Assay results published in US20230285514A1, “STAPLED LACTAM CO-AGONISTS OF THE GLUCAGON AND GLP-1 RECEPTORS” (Merck Sharp & Dohme LLC, priority 2019, published 2023).
*1 amine or outer side, *2 acyl side, *3 side chain or, on linkers, in order; H or OH if unused. Where a SMILES comes first, the peptide text is derived from it. Bridges are numbered along the chain shown (N, C = ends). Where no end group is shown, it is not given here. Side-chain parts run from the residue outwards. [ ]: non-standard residue; d: D form. The star is where a group is joined. γGlu = O=C(O)[C@H](CCC(=O)[*:2])N[*:1]; Met(O2) = CS(=O)(=O)CC[C@H](N)C(=O)O; Palmitoyl = CCCCCCCCCCCCCCCC(=O)*; Ac4c = NC1(C(=O)O)CCC1; Aib = CC(C)(N)C(=O)O

B1: TP846 (peptide)
peptide: H[Aib]QGTFTSDKSKYLD[Aib]RAAKDFVEWL[Met(O2)]DTK(γGlu)-NH2
modifications: lactam 20-24; not fully specified (residue 10); printed as HUQGTFTSDK(γEγEC16)SKYLDURAAK*DFVE*WL2DTKγE-NH2
B2: TP848 (peptide)
peptide: H[Aib]QGTFTSDKSKYLD[Aib]KAAQEFVQWL[Met(O2)]DTK(γGlu)-NH2
modifications: lactam 17-21; not fully specified (residue 10); printed as HUQGTFTSDK(γEγEC16)SKYLDUK*AAQE*FVQWL2DTKγE-NH2
B3: TP485 (peptide)
peptide: H[dS]QGTFTSDKSKYLDERAAKDFVEWLLDT-NH2
modifications: lactam 20-24; not fully specified (residue 10); printed as HsQGTFTSDK(γEγEC16)SKYLDERAAK*DFVE*WLLDT-NH2
B4: TP484 (peptide)
peptide: HXQGTFTSDXSKYLDERAAEDFVKWLLDT
modifications: s = D-Serine at 2; K10 conjugated to γEγE-C16 fatty acid; E*20 and K*24 cyclized to form a lactam containing ring; C-terminal amide
B5: TP850 (peptide)
peptide: H[Aib]QGTFTSDKSKYLD[Aib]RAAQDFVKWL[Met(O2)]ETK(γGlu)-NH2
modifications: lactam 24-28; not fully specified (residue 10); printed as HUQGTFTSDK(γEγEC16)SKYLDURAAQDFVK*WL2E*TKγE-NH2
B6: TP486 (peptide)
peptide: H[Aib]QGTFTSDKSKYLD[Aib]RAAQDFVEWLMKTK(γGlu)-NH2
modifications: lactam 24-28; not fully specified (residue 10); printed as HUQGTFTSDK(γEγEC16)SKYLDURAAQDFVE*WLMK*TKγE-NH2

Assays:
human GCGR = molecular target: T1, human GCGR (Homo sapiens, UniProt P47871); assay: cAMP activity assay, cells expressing human GCGR; type: cell-based; details: for hGCGR/hGLPIR (hTone): ratio of human GCGR EC50 to human GLP1R EC50
T1 construct: expressed in transfected cells
Procedure: Activity of the peptides at the Glucagon receptor (GCGR) and GLP-1 receptor (GLP1R) was measured in a cAMP activity assay. Peptides were dissolved in 100% DMSO and serially diluted to generate 10 point titrations. The peptide solutions were then transferred into 384-well assay plates (150 nL/well). Assay ready frozen cells expressing human GLP1R or human GCGR were suspended in growth media consisting of DMEM medium (GIBCO), 10% FBS (GIBCO), 1×NEAA(GIBCO), 1×P/S (GIBCO), 10 ug/ml Blasticidin (GIBCO) and 200 μg/mL Hygromycin (GIBCO). […] The cell suspensions (15 μL) were then added to the assay plates containing the peptide solutions (30,000 cells/well for human GCGR; 10,000 cells/well for human GLP1R). […] Production of cAMP was determined using […] kits (DiscoverX) following manufacturer protocol. The plates were incubated for overnight at room temperature in the dark. Luminescence was measured using an EnVision Multilabel plate reader (Perkin Elmer). Native GLP-1 and Glucagon (Bachem) are used as control peptides.

[1] = molecular target: human Glucagon receptor (GCGR) (human, UniProt P47871); assay: cell-based or functional assay
[2] = molecular target: human GLP-1 receptor (GLP1R) (human, UniProt P43220); assay: cell-based or functional assay

T1 sequence (P47871 26-477): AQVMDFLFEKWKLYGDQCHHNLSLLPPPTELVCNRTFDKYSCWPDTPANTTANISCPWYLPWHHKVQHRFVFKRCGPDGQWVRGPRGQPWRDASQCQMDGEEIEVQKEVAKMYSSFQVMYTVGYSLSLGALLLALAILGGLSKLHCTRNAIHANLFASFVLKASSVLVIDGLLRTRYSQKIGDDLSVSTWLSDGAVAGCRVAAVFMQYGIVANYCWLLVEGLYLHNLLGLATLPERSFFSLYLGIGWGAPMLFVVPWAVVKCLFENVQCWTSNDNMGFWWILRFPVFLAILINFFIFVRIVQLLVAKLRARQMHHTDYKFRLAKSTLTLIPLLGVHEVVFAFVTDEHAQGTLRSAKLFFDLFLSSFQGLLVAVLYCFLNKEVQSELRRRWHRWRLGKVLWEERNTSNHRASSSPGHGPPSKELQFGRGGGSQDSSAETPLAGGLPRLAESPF

| Molecule | hGCGR/hGLPIR (hTone) (human GCGR) | EC50 (human GCGR; cAMP production, cells expressing human GCGR, 1 hour, table does not say whether with or without 20% human serum) [nM] | GCGR EC50 human (nM), cAMP activity assay [1] [nM] | GLP1R EC50 human (nM), cAMP activity assay [2] [nM] |
| --- | --- | --- | --- | --- |
| CCCCCCCCCCCCCCCC(=O)N[C@@H](CCC(=O)N[C@@H](CCC(=O)NCCCC[C@H](NC(=O)[C@H](CC(=O)O)NC(=O)[C@H](CO)NC(=O)[C@@H](NC(=O)[C@H](Cc1ccccc1)NC(=O)[C@@H](NC(=O)CNC(=O)[C@H](CCC(N)=O)NC(=O)[C@@H](CO)NC(=O)[C@@H](N)Cc1c[nH]cn1)[C@@H](C)O)[C@@H](C)O)C(=O)N[C@@H](CO)C(=O)N[C@@H](CCCCN)C(=O)N[C@@H](Cc1ccc(O)cc1)C(=O)N[C@@H](CC(C)C)C(=O)N[C@@H](CC(=O)O)C(=O)N[C@@H](CCC(=O)O)C(=O)N[C@@H](CCCNC(=N)N)C(=O)N[C@@H](C)C(=O)N[C@@H](C)C(=O)N[C@H]1CCC(=O)NCCCC[C@@H](C(=O)N[C@@H](Cc2c[nH]c3ccccc23)C(=O)N[C@@H](CC(C)C)C(=O)N[C@@H](CC(C)C)C(=O)N[C@@H](CC(=O)O)C(=O)N[C@H](C(N)=O)[C@@H](C)O)NC(=O)[C@H](C(C)C)NC(=O)[C@H](Cc2ccccc2)NC(=O)[C@H](CC(=O)O)NC1=O)C(=O)O)C(=O)O [SEQ ID NO: 7] (H-H[dS]QGTFTSDK([γGlu-γGlu-Palmitoyl])SKYLDERAAEDFVKWLLDT-NH2; lactam 20-24; N-terminus assumed) | 1.05 |  |  |  |
| CCCCCCCCCCCCCCCC(=O)N[C@@H](CCC(=O)N[C@@H](CCC(=O)NCCCC[C@H](NC(=O)[C@H](CC(=O)O)NC(=O)[C@H](CO)NC(=O)[C@@H](NC(=O)[C@H](Cc1ccccc1)NC(=O)[C@@H](NC(=O)CNC(=O)[C@H](CCC(N)=O)NC(=O)[C@@H](CO)NC(=O)[C@@H](N)Cc1c[nH]cn1)[C@@H](C)O)[C@@H](C)O)C(=O)N[C@@H](CO)C(=O)N[C@@H](CCCCN)C(=O)N[C@@H](Cc1ccc(O)cc1)C(=O)N[C@@H](CC(C)C)C(=O)N[C@@H](CC(=O)O)C(=O)N[C@@H](CCC(=O)O)C(=O)N[C@@H](CCCNC(=N)N)C(=O)N[C@@H](C)C(=O)N[C@@H](C)C(=O)N[C@H]1CCCCNC(=O)CC[C@@H](C(=O)N[C@@H](Cc2c[nH]c3ccccc23)C(=O)N[C@@H](CC(C)C)C(=O)N[C@@H](CC(C)C)C(=O)N[C@@H](CC(=O)O)C(=O)N[C@H](C(N)=O)[C@@H](C)O)NC(=O)[C@H](C(C)C)NC(=O)[C@H](Cc2ccccc2)NC(=O)[C@H](CC(=O)O)NC1=O)C(=O)O)C(=O)O [SEQ ID NO: 8] (H-H[dS]QGTFTSDK([γGlu-γGlu-Palmitoyl])SKYLDERAAKDFVEWLLDT-NH2; lactam 20-24; N-terminus assumed) | 0.84 |  |  |  |
| CCCCCCCCCCCCCCCC(=O)N[C@@H](CCC(=O)N[C@@H](CCC(=O)NCCCC[C@H](NC(=O)[C@H](CC(=O)O)NC(=O)[C@H](CO)NC(=O)[C@@H](NC(=O)[C@H](Cc1ccccc1)NC(=O)[C@@H](NC(=O)CNC(=O)[C@H](CCC(N)=O)NC(=O)[C@@H](CO)NC(=O)[C@@H](N)Cc1c[nH]cn1)[C@@H](C)O)[C@@H](C)O)C(=O)N[C@@H](CO)C(=O)N[C@@H](CCCCN)C(=O)N[C@@H](Cc1ccc(O)cc1)C(=O)N[C@@H](CC(C)C)C(=O)N[C@@H](CC(=O)O)C(=O)N[C@H]1CCCCNC(=O)CC[C@@H](C(=O)N[C@@H](CC(=O)O)C(=O)N[C@@H](Cc2ccccc2)C(=O)N[C@H](C(=O)N[C@@H](CCC(N)=O)C(=O)N[C@@H](Cc2c[nH]c3ccccc23)C(=O)N[C@@H](CC(C)C)C(=O)N[C@@H](CC(C)C)C(=O)N[C@@H](CC(=O)O)C(=O)N[C@H](C(N)=O)[C@@H](C)O)C(C)C)NC(=O)[C@H](C)NC(=O)[C@H](C)NC(=O)[C@H](CCCNC(=N)N)NC1=O)C(=O)O)C(=O)O [SEQ ID NO: 10] (H-H[dS]QGTFTSDK([γGlu-γGlu-Palmitoyl])SKYLDKRAAEDFVQWLLDT-NH2; lactam 16-20; N-terminus assumed) | 0.8 |  |  |  |
| CCCCCCCCCCCCCCCC(=O)N[C@@H](CCC(=O)N[C@@H](CCC(=O)NCCCC[C@H](NC(=O)[C@H](CC(=O)O)NC(=O)[C@H](CO)NC(=O)[C@@H](NC(=O)[C@H](Cc1ccccc1)NC(=O)[C@@H](NC(=O)CNC(=O)[C@H](CCC(N)=O)NC(=O)[C@@H](CO)NC(=O)[C@@H](N)Cc1c[nH]cn1)[C@@H](C)O)[C@@H](C)O)C(=O)N[C@@H](CO)C(=O)N[C@@H](CCCCN)C(=O)N[C@@H](Cc1ccc(O)cc1)C(=O)N[C@@H](CC(C)C)C(=O)N[C@@H](CC(=O)O)C(=O)N[C@@H](C)C(=O)N[C@H]1CCCCNC(=O)CC[C@@H](C(=O)N[C@@H](Cc2ccccc2)C(=O)N[C@H](C(=O)N[C@@H](CCC(N)=O)C(=O)N[C@@H](Cc2c[nH]c3ccccc23)C(=O)N[C@@H](CC(C)C)C(=O)N[C@@H](CC(C)C)C(=O)N[C@@H](CC(=O)O)C(=O)N[C@H](C(N)=O)[C@@H](C)O)C(C)C)NC(=O)[C@H](CCC(N)=O)NC(=O)[C@H](C)NC(=O)[C@H](C)NC1=O)C(=O)O)C(=O)O [SEQ ID NO: 12] | 0.8 | 0.06 |  |  |
| CCCCCCCCCCCCCCCC(=O)N[C@@H](CCC(=O)N[C@@H](CCC(=O)NCCCC[C@H](NC(=O)[C@H](CC(=O)O)NC(=O)[C@H](CO)NC(=O)[C@@H](NC(=O)[C@H](Cc1ccccc1)NC(=O)[C@@H](NC(=O)CNC(=O)[C@H](CCC(N)=O)NC(=O)[C@@H](CO)NC(=O)[C@@H](N)Cc1c[nH]cn1)[C@@H](C)O)[C@@H](C)O)C(=O)N[C@@H](CO)C(=O)N[C@@H](CCCCN)C(=O)N[C@@H](Cc1ccc(O)cc1)C(=O)N[C@@H](CC(C)C)C(=O)N[C@@H](CC(=O)O)C(=O)N[C@@H](C)C(=O)N[C@@H](CCCNC(=N)N)C(=O)N[C@@H](C)C(=O)N[C@@H](C)C(=O)N[C@@H](CCC(N)=O)C(=O)N[C@@H](CC(=O)O)C(=O)N[C@@H](Cc1ccccc1)C(=O)N[C@H](C(=O)N[C@H]1CCCCNC(=O)CC[C@@H](C(=O)N[C@H](C(N)=O)[C@@H](C)O)NC(=O)[C@H](CC(C)C)NC(=O)[C@H](CC(C)C)NC(=O)[C@H](Cc2c[nH]c3ccccc23)NC1=O)C(C)C)C(=O)O)C(=O)O [SEQ ID NO: 13] (H-H[dS]QGTFTSDK([γGlu-γGlu-Palmitoyl])SKYLDARAAQDFVKWLLET-NH2; lactam 24-28; N-terminus assumed) | 0.56 |  |  |  |
| B1 |  |  | 0.176 | 0.147 |
| B2 |  |  | 0.079 | 0.044 |
| B3 |  |  | 0.05 | 0.14 |
| B4 |  |  | 0.04 | 0.12 |
| H[Aib]QGTFTSDKSKYLD[Ac4c]KAAQEFVQWL[Met(O2)]DTK(γGlu)-NH2 (lactam 17-21; not fully specified (residue 10)) [TP857] |  |  | 0.092 | 0.038 |
| B5 |  |  | 0.034 | 0.033 |
| B6 |  |  | 0.06 | 0.29 |
| H[Aib]QGTFTSDKSKYLD[Ac4c]RAAKDFVEWL[Met(O2)]DTK(γGlu)-NH2 (lactam 20-24; not fully specified (residue 10)) [TP859] |  |  | 0.108 | 0.043 |
| H[Aib]QGTFTSDKSKYLD[Ac4c]RAAQDFVKWL[Met(O2)]ETK(γGlu)-NH2 (lactam 24-28; not fully specified (residue 10)) [TP861] |  |  | 0.928 | 0.056 |
